Assay results from IntAct's records for PubMed 23825108.

B1: Cyanocobalamin reductase / alkylcobalamin dealkylase (Homo sapiens), Q9Y4U1 (parent)
chain: MEPKVAELKQKIEDTLCPFGFEVYPFQVAWYNELLPPAFHLPLPGPTLAFLVLSTPAMFDRALKPFLQSCHLRMLTDPVDQCVAYHLGRVRESLPELQIEIIADYEVHPNRRPKILAQTAAHVAGAAYYYQRQDVEADPWGNQRISGVCIHPRFGGWFAIRGVVLLPGIEVPDLPPRKPHDCVPTRADRIALLEGFNFHWRDWTYRDAVTPQERYSEEQKAYFSTPPAQRLALLGLAQPSEKPSSPSPDLPFTTPAPKKPGNPSRARSWLSPRVSPPASPGP

Variants of: B1
Conditions: with meth_human MTR

Variant | effect of a mutation on the interaction
R161Q | decreasing interaction strength
R206W | decreasing interaction strength
